Data: PMC6778137, “The midbody interactome reveals unexpected roles for PP1 phosphatases in cytokinesis” (Nature Communications, 2019)

Biological target: T1, MBP::PP1β (UniProt P62140 1-327)
T1 construct: PP1β; Expressed from a derivative of plasmid pMH919 carrying MBP instead of 6His; also called MBP-tagged PP1β; source: S. cerevisiae (strain MGY960), purified on amylose resin, eluted with 20 mM maltose
Assay: pull-down; GST pull-down: GST::MKLP1_(620–858) proteins on Glutathione Sepharose beads mixed with MBP::PP1β purified from yeast; NET-N+ buffer (50 mM Tris-HCl pH 7.4, 150 mM NaCl, 5 mM EDTA, 0.2% NP-40), 60 min at 4 °C, washes with 250 mM NaCl; western blot
Conditions: both partners purified

T1 sequence (P62140 whole entry): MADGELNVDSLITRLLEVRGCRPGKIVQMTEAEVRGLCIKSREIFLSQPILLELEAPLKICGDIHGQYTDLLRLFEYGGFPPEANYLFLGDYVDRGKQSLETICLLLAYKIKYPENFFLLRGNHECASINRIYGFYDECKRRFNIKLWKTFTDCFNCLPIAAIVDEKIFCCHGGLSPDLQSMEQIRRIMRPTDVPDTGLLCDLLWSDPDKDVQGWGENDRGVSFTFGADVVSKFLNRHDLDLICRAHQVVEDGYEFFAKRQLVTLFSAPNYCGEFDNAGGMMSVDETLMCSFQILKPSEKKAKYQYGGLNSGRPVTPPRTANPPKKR

binding result	Binder
binds	GST::MKLP1_(620–858) (wild type) (domain or fragment, UniProt Q02241-2 620-856, looked up, Cloned into pDEST15; source: E. coli, purified (Glutathione Sepharose 4B), kept on beads; not shown: GST, N-terminal, kept) ETTMKWEKECERRVAAKQLEMQNKLWVKDEKLKQLKAIVTEPKTEKPERPSRERDREKVTQRSVSPSPVPLLFQPDQNAPPIRLRHRRSRSAGDRWVDHKPASNMQTETVMQPHVPHAITVSVANEKALAKCEKYMLTHQELASDGEIETKLIKGDIYKTRGGGQSVQFTDIETLKQESPNGSRKRRSSTVAPAQPDGAESEWTDVETRCSVAVEMRAGSQLGPGYQHHAQPKRKKP
binds	GST::MKLP1_(620–858) AQA mutant (domain or fragment, UniProt Q02241-2 620-856, looked up, Cloned into pDEST15; also called AQA MKLP1; source: E. coli, purified (Glutathione Sepharose 4B), kept on beads; not shown: GST, N-terminal, kept) ETTMKWEKECERRVAAKQLEMQNKLWVKDEKLKQLKAIVTEPKTEKPERPSRERDREKVTQRSVSPSPVPLLFQPDQNAPPIRLRHRRSRSAGDRWVDHKPASNMQTETVMQPHVPHAITVSVANEKALAKCEKYMLTHQELASDGEIETKLIKGDIYKTRGGGQSAQATDIETLKQESPNGSRKRRSSTVAPAQPDGAESEWTDVETRCSVAVEMRAGSQLGPGYQHHAQPKRKKP
